T1: Recombinant human BMPRII/Fc chimera protein (human, UniProt Q13873 27-150)
T1 sequence: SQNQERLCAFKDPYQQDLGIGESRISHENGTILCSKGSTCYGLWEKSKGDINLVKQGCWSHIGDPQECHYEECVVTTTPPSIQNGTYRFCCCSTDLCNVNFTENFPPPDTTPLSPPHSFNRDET


Experiments:
[1] = target: the molecule itself; assay: cross-linking + co-IP
[2] = target: T1, Recombinant human BMPRII/Fc chimera …; assay: SPR

Kd [2] [nM] | Binder | stoichiometry N [1]
– | 125I-labeled recombinant human BMP4 (ligand, 125I (radioiodinated, Chloramine T method)) SPKHHSQRARKKNKNCRRHSLYVDFSDVGWNDWIVAPPGYQAFYCHGDCPFPLADHLNSTNHAIVQTLVNSVNSSIPKACCVPTELSAISMLYLDEYDKVVLKNYQEMVVEGCGCR | 2
164 | Recombinant human BMP2 (bone morphogenetic protein 2) (ligand) QAKHKQRKRLKSSCKRHPLYVDFSDVGWNDWIVAPPGYHAFYCHGECPFPLADHLNSTNHAIVQTLVNSVNSKIPKACCVPTELSAISMLYLDENEKVVLKNYQDMVVEGCGCR | –

From publication PMC2982130 (Molecular Biology of the Cell, 2010)
